From US20210017279A1 (NANJING LEGEND BIOTECH, published 2021)
Several values for one entry are separate records, joined by “and”; a condition that tells them apart may be missing. Equal entries are not always repeated.

What was measured:
[1] = biological target: T1, PD-1 expressed on CHO cells (UniProt Q15116 25-288, limits assumed); experiment: flow cytometry competition; blocks PD-L1 binding to CHO-PD-1 cells; Experiment 1
T1 construct: whole, on cells; also called CHO-PD-1 cells

[2] = biological target: T1, PD-1 expressed on CHO cells; experiment: flow cytometry on CHO cells expressing PD-1; Experiment 1
[3] = biological target: T2, Human PD-1 (human, UniProt Q15116 25-167, limits assumed); experiment: SPR (Biacore T200), as in Example 3; Experiment 1
T2 sequence (Q15116 25-167 limits assumed): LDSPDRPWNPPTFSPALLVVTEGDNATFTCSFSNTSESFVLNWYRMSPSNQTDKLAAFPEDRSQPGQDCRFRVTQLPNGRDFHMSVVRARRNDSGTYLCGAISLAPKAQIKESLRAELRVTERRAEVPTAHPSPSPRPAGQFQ

[4] = biological target: LAG-3 on Thaw-and-Use LAG-3 Effector cells; experiment: cell-based or functional assay
[5] = biological target: PD-1 in the PD-1 cell based reporter assay; experiment: cell-based or functional assay
[6] = biological target: T1, PD-1 expressed on CHO cells; experiment: flow cytometry competition; blocks PD-L1 binding to CHO-PD-1 cells; Experiment 2
[7] = biological target: T1, PD-1 expressed on CHO cells; experiment: flow cytometry on CHO cells expressing PD-1; Experiment 2
[8] = biological target: T2, Human PD-1; experiment: SPR (Biacore T200), as in Example 3; Experiment 2

T1 sequence (Q15116 25-288 limits assumed): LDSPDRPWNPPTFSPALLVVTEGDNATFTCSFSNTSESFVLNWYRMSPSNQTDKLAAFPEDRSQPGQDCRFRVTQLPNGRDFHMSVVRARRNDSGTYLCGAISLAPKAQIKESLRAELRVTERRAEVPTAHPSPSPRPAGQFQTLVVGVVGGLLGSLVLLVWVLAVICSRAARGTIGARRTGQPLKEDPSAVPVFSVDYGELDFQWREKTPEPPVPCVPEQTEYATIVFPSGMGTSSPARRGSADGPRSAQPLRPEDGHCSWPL

Binder	EC50 [1] [nM]	EC50 [2] [nM]	Kd [3] [nM]	LAG-3 blockade reporter assay EC50 [4] [nM]	PD-1 cell based reporter assay EC50 [5]	EC50 [6] [nM]	EC50 [7] [nM]	Kd [8] [nM]
BLP-2 (bispecific antibody, human IgG4 S228P, kappa, also called PD-1 x LAG-3 proof-of-concept BABP) heavy: not shown light: DIQMTQSPSSVSASVGDRVTITCKASQDVDTAVAWYQQKPGKAPKLLIYWASTRHTGVPSRFSGSGSGTDFTLTISSLQPEDFATYYCQQYSTFPWTFGGGTKVEIKRTVAAPSVFIFPPSDEQLKSGTASVVCLLNNFYPREAKVQWKVDNALQSGNSQESVTEQDSKDSTYSLSSTLTLSKADYEKHKVYACEVTHQGLSSPVTKSFNRGEC	3.2	4.29	4.4	2.04	5.14 nM	–	–	–
BLP-3 (bispecific antibody, human IgG4 S228P, kappa, also called PD-1 x LAG-3 proof-of-concept BABP) heavy: not shown light: DIQMTQSPSSVSASVGDRVTITCKASQDVDTAVAWYQQKPGKAPKLLIYWASTRHTGVPSRFSGSGSGTDFTLTISSLQPEDFATYYCQQYSTFPWTFGGGTKVEIKRTVAAPSVFIFPPSDEQLKSGTASVVCLLNNFYPREAKVQWKVDNALQSGNSQESVTEQDSKDSTYSLSSTLTLSKADYEKHKVYACEVTHQGLSSPVTKSFNRGEC	4.38	4.64	2	1.45	5.92 nM	–	–	–
BLP-4 (bispecific antibody, human IgG4 S228P, kappa, also called PD-1 x LAG-3 proof-of-concept BABP) heavy: not shown light: DIQMTQSPSSVSASVGDRVTITCKASQDVDTAVAWYQQKPGKAPKLLIYWASTRHTGVPSRFSGSGSGTDFTLTISSLQPEDFATYYCQQYSTFPWTFGGGTKVEIKRTVAAPSVFIFPPSDEQLKSGTASVVCLLNNFYPREAKVQWKVDNALQSGNSQESVTEQDSKDSTYSLSSTLTLSKADYEKHKVYACEVTHQGLSSPVTKSFNRGEC	2.58	3.51	4.5	1.85	5.94 nM	–	–	–
PD1-BM-min (antibody, human IgG4 S228P, kappa, V domains shown, Full-length anti-PD-1 antibody, parental element of the BLP constructs; also called PD-BM-min; anti-PD-1 full-length antibody) VH: EVQLVESGGGLVQPGGSLRLSCAASGFVFSRYDMAWVRQAPGKGLEWVSFISGGGSNTYYPDTVKGRFTISRDNSKNTLYLQMNSLRAEDTAVYYCISPYYYAMEYWGQGTTVTVSS VL: DIQMTQSPSSVSASVGDRVTITCKASQDVDTAVAWYQQKPGKAPKLLIYWASTRHTGVPSRFSGSGSGTDFTLTISSLQPEDFATYYCQQYSTFPWTFGGGTKVEIKR	1.72	2.44	1.4	–	1.34 nM and 1.21 nM	9.56	6.27	2.3
Pembrolizumab (antibody, human IgG4 S228P, kappa, V domains shown) VH: QVQLVQSGVEVKKPGASVKVSCKASGYTFTNYYMYWVRQAPGQGLEWMGGINPSNGGTNFNEKFKNRVTLTTDSSTTTAYMELKSLQFDDTAVYYCARRDYRFDMGFDYWGQGTTVTVSS VL: EIVLTQSPATLSLSPGERATLSCRASKGVSTSGYSYLHWYQQKPGQAPRLLIYLASYLESGVPARFSGSGSGTDFTLTISSLEPEDFAVYYCQHSRDLPLTFGGGTKVEIKR	–	–	–	–	1.15 nM	–	–	–
